± gives the uncertainty stated by the source.
Assay: amyloid nucleation score (Sup35N fusion, yeast selection) (log enrichment); library NNK1; higher = more nucleation; inactive = no reads after selection
Summary of the method: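 Plasmid inserts were Illumina-sequenced at input and output from psi-negative yeast expressing Sup35N fused to peptides of 20 random codons. The yeast were induced with 100 μM copper sulfate for 24 hours and grown 7 days at 30°C on medium lacking adenine and uracil, and sequences with under 100 input reads were excluded. Nucleation score is the DiMSum log enrichment of output over input reads, centred on the mode score of non-aggregating sequences.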

YLHSSGGYNFSVRVSKYNCE
amyloid nucleation score: -0.689 ± 0.61

YLLSCVGIASLGFKVFL
amyloid nucleation score: -0.718 ± 0.7

YLMFFVYCVRLRYLSWALSQ
amyloid nucleation score: -1.35 ± 1.9

YLMMVIRKVFVPCCNG
amyloid nucleation score: 0.378 ± 0.21

YLPIKPFIYANILWGFTVSC
amyloid nucleation score: -0.025 ± 1

YLQGENNWRVVGQRLSTSPA
amyloid nucleation score: 0.03 ± 0.4

YLRRSGMLAFSSSHHR
amyloid nucleation score: 1.15 ± 0.4

YLSCLNFRLGSMFMRSL
amyloid nucleation score: 0.653 ± 0.93

YLVPELYEMSNS
amyloid nucleation score: 1.38 ± 0.79

YLWSSCLGGDSANWLLY
amyloid nucleation score: 0.714 ± 0.32

YMASEG
amyloid nucleation score: inactive

YMGLYWLDRRMICMQLLWTL
amyloid nucleation score: 2.37 ± 0.4

YMGYCYNTTKVCKLRQIYAG
amyloid nucleation score: 1.71 ± 0.54

YMHSGGQGLLCIQVSYTMSF
amyloid nucleation score: -0.503 ± 0.83

YMILLSLGVFFTPVPDYFAQ
amyloid nucleation score: -0.385 ± 0.68

YMIWTIFNMVSIGRPQFLRL
amyloid nucleation score: -0.716 ± 0.56

YMKLRCMK
amyloid nucleation score: 0.019 ± 0.6

YMLGREMS
amyloid nucleation score: inactive

YMSVWFVTVSMDCVGRNSRT
amyloid nucleation score: 4.19 ± 0.058

YNAARLFPYVNVWGII
amyloid nucleation score: -0.305 ± 1.3

YNISDSTSPMVASRMGRLGQ
amyloid nucleation score: 0.364 ± 0.45

YNLYRH
amyloid nucleation score: 0.406 ± 0.51

YNNLIPTYHHWGSFHMV
amyloid nucleation score: 1.32 ± 0.68

YNSVKVNRFH
amyloid nucleation score: 1.3 ± 0.74

YNTRTRILWARVVNRVINLW
amyloid nucleation score: 4.95 ± 0.072

YNVKSVCGRAPIGVMGRKWG
amyloid nucleation score: 0.618 ± 0.52

YNVLCYFLNRFWMGYWYLLS
amyloid nucleation score: 1.5 ± 0.5

YNWVGIDRMGFYTFSVGLVC
amyloid nucleation score: -0.375 ± 0.38

YPLPV
amyloid nucleation score: 0.376 ± 0.28

YPPRAQDMTRSAQRKCQRGV
amyloid nucleation score: inactive

YPVRFHTYVVISTFGEIGFG
amyloid nucleation score: 0.822 ± 0.43

YQRSTWSSWNQVRYYHEFQR
amyloid nucleation score: 1.59 ± 0.3

YQSHLAIFFRDGHRSSKITN
amyloid nucleation score: -0.008 ± 1.2

YQWIFIHLPAVLSVGMEIRY
amyloid nucleation score: -0.672 ± 0.49

YRCCFLKNNPAWVQFSLRLR
amyloid nucleation score: -0.436 ± 0.36

YRFFCCVGHITSFVFLVGNV
amyloid nucleation score: 5.25 ± 0.054

YRICVKSSVQAGRLMFKVTG
amyloid nucleation score: -1.61 ± 2.7

YRLRQPLPSERSLMEHSCGV
amyloid nucleation score: 0.761 ± 0.56

YRMGLGS
amyloid nucleation score: -0.455 ± 0.96

YRPMYMVAEQWYYK
amyloid nucleation score: 0.896 ± 0.49

YRRWKPIGVMSSSWLICVES
amyloid nucleation score: 0.603 ± 0.43

YRSFCFRWWISSGCAGLRGS
amyloid nucleation score: 0.489 ± 0.67

YRSSVL
amyloid nucleation score: -0.514 ± 0.29

YRTSWEAVQGWSFS
amyloid nucleation score: -1.64 ± 1.3

YRYSVQVLNCAKGAENGVII
amyloid nucleation score: -0.152 ± 0.32

YSAIRTKFFAA
amyloid nucleation score: 0.616 ± 1.1

YSAYNRQEDLGLKIVFVLLT
amyloid nucleation score: 2.57 ± 0.1

YSCGGSDSWGTTNSNLGFRH
amyloid nucleation score: -0.751 ± 0.66

YSDLSVHHYFWHQFRQKCDR
amyloid nucleation score: 2.01 ± 0.21

Reference: the supplement of paper PMC12042874
